Reference: article PMC4598028, “pH-Dependent Assembly and Segregation of the Coiled-Coil Segments of Yeast Putative Cargo Receptors Emp46p and Emp47p” (PLoS ONE, 2015)

B1: coiled-coil segment of Emp46p, Emp46p^CC (252–355) (domain or fragment, yeast, UniProt Q12396 298-401, looked up)
chain: EESFREKMPFSDKEESITSNELFEKMNKLEGKIMANDIDPLLRKMNKIVENERELIQRLRPLLDLKKTAISDDSFQDFLSMNANLDRLIKEQEKIRQDAKLYGK
notes: Emp46p, yeast putative cargo receptor, coiled-coil segment, residues 252-355; Monomer-dimer equilibrium by SV-AUC and native MS; also called wild-type Emp46p^CC; source: E. coli BL21-CodonPlus, purified (Chelating Sepharose, tag cleaved, gel filtration)
B2: coiled-coil segment of Emp47p, Emp47p^CC (254–374) (domain or fragment, yeast, UniProt P43555 282-402, looked up)
chain: GKEKLIEKTAFDADKDKITNYELYKKLDRVEGKILANDINALETKLNDVIKVQQELLSFMTTITKQLSSKPPANNEKGTSTDDAIAEDKENFKDFLSINQKLEKVLVEQEKYREATKRHGQ
notes: Emp47p, yeast putative cargo receptor, coiled-coil segment, residues 254-374 by the methods (the results print 271–274); in mixtures with Emp46p^CC it forms 1:3 and 2:2 heterotetramers; the results print (271–274); also called Emp47^CC; source: E. coli BL21-CodonPlus, purified (Chelating Sepharose, tag cleaved, gel filtration)

Key:
[1] = biological target: coiled-coil segment of Emp47p, Emp47p^CC (254–374) (yeast) (UniProt P43555); assay: native MS; nanoflow electrospray under non-denaturing conditions, 200 mM ammonium acetate pH 7.4; single proteins 43 uM; mixtures of Emp47p^CC 33 uM with 17, 33 and 67 uM Emp46p^CC, 25 °C, 30 min
[2] = biological target: E303A mutant of Emp46p^CC (yeast) (UniProt Q12396); assay: cross-linking; dimethyl suberimidate (DMS) 0.1 mg/mL, 60 or 120 min, room temperature, 100 mM carbonate/bicarbonate buffer pH 8.9; SDS-PAGE
[3] = biological target: the molecule itself; assay: native MS; mass spectra under non-denaturing conditions measured at pH 5.0; Emp47p^CC fixed, Emp46p^CC varied
[4] = biological target: the molecule itself; assay: SEC; Superose 12 gel filtration; Emp47p^CC 70 uM alone or with Emp46p^CC or its E303A mutant; 10 mM phosphate buffer pH 7.4, 150 mM NaCl

Row | Molecule | stoichiometry N (Emp46p^CC per Emp47p^CC (printed as 1:3)) [1] | stoichiometry N [2] | stoichiometry N [3] | stoichiometry N [4]
1 | E303A mutant of Emp46p^CC (from UniProt Q12396 252-355) (domain or fragment) | 0.33 | 2 | – | –
2 | B1 | – | – | 2 | –
3 | B2 | – | – | 3 | 4
